The target in this assay is T1, EphB4 CF2 protein (ECD version with deleted globular domain, 6xHis tagged) (human, UniProt P54760 16-537).
T1 construct: The entry is the precursor
T1 sequence: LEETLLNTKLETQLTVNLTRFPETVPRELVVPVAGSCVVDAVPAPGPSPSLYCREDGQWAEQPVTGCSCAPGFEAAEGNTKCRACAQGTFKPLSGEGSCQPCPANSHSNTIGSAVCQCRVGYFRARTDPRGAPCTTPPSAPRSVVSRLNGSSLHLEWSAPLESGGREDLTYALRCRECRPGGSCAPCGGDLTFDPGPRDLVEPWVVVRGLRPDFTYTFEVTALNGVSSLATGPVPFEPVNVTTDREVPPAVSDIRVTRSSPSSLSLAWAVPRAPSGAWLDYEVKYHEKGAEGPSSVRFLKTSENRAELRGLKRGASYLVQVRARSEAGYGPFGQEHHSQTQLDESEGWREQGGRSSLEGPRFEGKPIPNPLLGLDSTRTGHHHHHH
As to the kind of experiment: Ephrin B2-AP binding to B4 proteins immobilized on Ni2+ resin or nitrocellulose membrane. The method, then:
To confirm ability of the purified recombinant proteins to bind Ephrin B2, they were tested in an in vitro binding assay. As expected, GC, GCF1 and GCF2, but not CF2 are binding the cognate ligand Ephrin B2 as confirmed by interaction between Ephrin B2-alkaline phosphatase (Ephrin B2-AP) fusion protein with the B4 proteins immobilized on Ni²⁺ resin or on nitrocellulose membrane (FIG. 17).

B1: B2EC-AP reagent (protein fusion of Ephrin B2 ectodomain with placental alkaline phosphatase) (ligand, UniProt P52799 28-229, looked up)
chain: IVLEPIYWNSSNSKFLPGQGLVLYPQIGDKLDIICPKVDSKTVGQYEYYKVYMVDKDQADRCTIKKENTPLLNCAKPDQDIKFTIKFQEFSPNLWGLEFQKNKDYYIISTSNGSLEGLDNQEGGVCQTRAMKILMKVGQDASSAGSTRNKDPTRRPELEAGTNGRSSTTSPFVKPNPGSSTDGNSAGHSGNNILGSEVALFA
notes: extracellular domain; also called B2-AP; Ephrin B2-AP; not shown: placental alkaline phosphatase
For the molecule B1, the binding result is given as “no binding”.

(Values after patent publication US20060204512A1 (VASGENE THERAPEUTICS, published 2006).)
